According to PMC4838857, “Tum/RacGAP functions as a switch activating the Pav/kinesin-6 motor” (Nature Communications, 2016):

Columns and labels:
[1] = biological target: Pav/kinesin-6 (Pavarotti, Pav-KLP), full length with C-terminal 6xHis (Drosophila melanogaster)
[2] = biological target: Tum/RacGAP (Tumbleweed, RacGAP50C), full length, untagged, co-expressed with Pav/kinesin-6 (Drosophila melanogaster); assay: SEC + other: sucrose gradient sedimentation; hydrodynamic analysis (Siegel and Monty) of centralspindlin purified from co-expression: Superose 6 and 5-20% sucrose gradient, 4 °C
[3] = biological target: Pav/kinesin-6 (Pavarotti, Pav-KLP), full length with C-terminal 6xHis (Drosophila melanogaster); assay: as above
[4] = biological target: Pav/kinesin-6 (Pavarotti, Pav-KLP), full length with C-terminal 6xHis (Drosophila melanogaster); assay: SEC + other: sucrose gradient sedimentation; hydrodynamic analysis (Siegel and Monty) of the in vitro add-back: equal molar Pav/kinesin-6 and Tum/RacGAP, purified apart, mixed and incubated
[5] = biological target: Pav/kinesin-6 (Pavarotti, Pav-KLP), full length with C-terminal 6xHis (Drosophila melanogaster); assay: SEC + other: sucrose gradient sedimentation; hydrodynamic analysis (Siegel and Monty) of each protein alone: Stokes radius by Superose 6, S value on 5-20% sucrose gradient, 9 h at 55,000 r.p.m., 4 °C
[6] = biological target: Tum/RacGAP (Tumbleweed, RacGAP50C), full length with C-terminal 6xHis (Drosophila melanogaster); assay: SEC + other: sucrose gradient sedimentation; hydrodynamic analysis (Siegel and Monty) of the in vitro add-back: equal molar Pav/kinesin-6 and Tum/RacGAP, purified apart, mixed and incubated
[7] = biological target: Tum/RacGAP (Tumbleweed, RacGAP50C), full length with C-terminal 6xHis (Drosophila melanogaster); assay: SEC + other: sucrose gradient sedimentation; hydrodynamic analysis (Siegel and Monty) of each protein alone: Stokes radius by Superose 6, S value on 5-20% sucrose gradient, 9 h at 55,000 r.p.m., 4 °C
[8] = substrate: Nc1ncnc2c1ncn2[C@@H]1O[C@H](COP(=O)(O)OP(=O)(O)OP(=O)(O)O)[C@@H](O)[C@H]1O; assay: microtubule gliding velocity vs [MgATP], Lineweaver-Burk; format: biochemical, Drosophila melanogaster; details: motility-derived Km, saturating taxol-stabilised microtubules, Mg2+, pH 8.0, 150 mM KCl
Source text: microtubule gliding velocity vs [MgATP], Lineweaver-Burk on centralspindlin (co-expressed Pav/Tum)

For “Tum/RacGAP (Tumbleweed, RacGAP50C), full length, untagged, co-expressed with Pav/kinesin-6 (natural protein)”, the MT gliding velocity of centralspindlin (co-expressed Pav/Tum); Pav/kinesin-6 alone 0 [1] was 0.103 μm s^-1 and the stoichiometry N [2] was 2 subunits.

Molecule “Pav/kinesin-6 (Pavarotti, Pav-KLP), full length with C-terminal 6xHis (natural protein)” has a stoichiometry N [3] of 2 subunits, a stoichiometry N [4] of 2 subunits and a stoichiometry N [5] of 2 subunits.

“Tum/RacGAP (Tumbleweed, RacGAP50C), full length with C-terminal 6xHis (natural protein)” gave an MT gliding velocity of Pav+Tum (in vitro add-back, equal molar); Pav/kinesin-6 alone 0 [1] of 0.062 μm s^-1, a stoichiometry N [6] of 2 subunits and a stoichiometry N [7] of 2 subunits.

“Tum1-65 fragment (1-65aa of Tum/RacGAP) with C-terminal 6xHis (domain or fragment)” showed an MT gliding velocity of Pav+Tum1-65 (in vitro add-back); Pav/kinesin-6 alone 0 [1] of 0.075 μm s^-1.

B1: centralspindlin (co-expressed Pav/Tum) (Drosophila melanogaster) (protein)
chain: MKAVPRTPMRVVPKTPRVHQTVEKQRRDTSDKARDPVNVFCRVRPLQSDADLTSLRVKNSTTIALNPQDQLLQHHKPHNGAQREVQYIFKHVFQPDATQQDVYAAVAQPLVENLLKGRNSLLFTYGVTGSGKTYTMTGNLRHRGIMPRCLDVLFRTISDYQAKKFVFKPDKLNGFEILSEEDALLERQHEMNQRFAGSGRFAFRHKDSDPEIASQASVEPIPLLGLDEDNMYSVFVTYIEIYNNSVYDLLEDSGIQKTLQSKIIREDANRHMFVHGVTEVEVKTVEDALEVFQMGQKRKRMGHTVLNAESSRSHSVFNIRLVQAPTDSQGENVVQDRQNITVSQLSLVDLAGSERSSRTKNTGVRLREAGNINNSLMTLRTCLEYLRENQLAASNGLAPKKVPYRDSKITHMFKNYFDGEGQVSMIVCINPRIEDYDENMQVMKFAEMTQEVQIARATPMKQDLGLTPGRRKANKLFKIAVNNLNELGIPEAKDLEVDVGLVYSLGPDFPAYEMDSPEAQIKIRELMHYLEQRIEKRKKLRANLDIKCDSFRQMLMNLDRDNLQLRTELASLKAVYKQERDRSAALEKKVRIHESSIDVLNNTLSKQERQIEELTFKLNEKENMLTQKEHEKEKQKKKFSSKLAVESDKNKREFELKLREQRVKLQERMRIKDEKLRLVSNILQSEDLPSLPRSQSSENILNEKDRGAYTARTEESSVPATRTDIYATPRHGAAAANNRHRRSRSAGDKWLEHRAANPVPLGTIMQPYLKNRKSVTKLTDLKELTAHGTTKYCLVSQDADTDGDVETKLYKGNVIPTCGGGAQVVFNDVECLKQKSPVHSPTRKRPSNGNISALGGGAVPSTVTSAQDVASRCNLGIEGHSSKKSKI
notes: full-length Pav with C-terminal 6xHis co-expressed with untagged full-length Tum in Sf9 (baculovirus), Ni-NTA and Superose 6; heterotetramer 372 kDa (2 Pav 107 kDa + 2 Tum 65 kDa); cDNA errors in Tum corrected
B1 showed a Km [8] of 79 ± 13 µM.
